Laboratory results from patent US20110165624A1 (REGENTS OF THEUNIVERSITY OF MICHIGAN, published 2011).

Target: the molecule itself
Experiment: size exclusion chromatography, Superdex 75, non-denaturing; self-association (dimerization)

B1: Mocr protein (monomeric Ocr, F53R and V77D) as produced from the pMCSG7 vector (pMocr) (other)
chain: MHHHHHHSSGVDLAMSNMTYNNVFDHAYEMLKENIRYDDIRDTDDLHDAIHMAADNAVPHYYADIRSVMASEGIDLEFEDSGLMPDTKDDIRILQARIYEQLTIDLWEDAEDLLNEYLEEVEEYEEDEEGTENLYFQSNICSG
notes: […]; The predicted molecular weight is 16.7 kDa; also called synthetic Mocr
binding result: no binding
